Target: DDX3X WT (MBP) (UniProt O00571 1-662)
Test: time-resolved fluorescence anisotropy

Sequence of DDX3X WT (MBP) (O00571 whole entry): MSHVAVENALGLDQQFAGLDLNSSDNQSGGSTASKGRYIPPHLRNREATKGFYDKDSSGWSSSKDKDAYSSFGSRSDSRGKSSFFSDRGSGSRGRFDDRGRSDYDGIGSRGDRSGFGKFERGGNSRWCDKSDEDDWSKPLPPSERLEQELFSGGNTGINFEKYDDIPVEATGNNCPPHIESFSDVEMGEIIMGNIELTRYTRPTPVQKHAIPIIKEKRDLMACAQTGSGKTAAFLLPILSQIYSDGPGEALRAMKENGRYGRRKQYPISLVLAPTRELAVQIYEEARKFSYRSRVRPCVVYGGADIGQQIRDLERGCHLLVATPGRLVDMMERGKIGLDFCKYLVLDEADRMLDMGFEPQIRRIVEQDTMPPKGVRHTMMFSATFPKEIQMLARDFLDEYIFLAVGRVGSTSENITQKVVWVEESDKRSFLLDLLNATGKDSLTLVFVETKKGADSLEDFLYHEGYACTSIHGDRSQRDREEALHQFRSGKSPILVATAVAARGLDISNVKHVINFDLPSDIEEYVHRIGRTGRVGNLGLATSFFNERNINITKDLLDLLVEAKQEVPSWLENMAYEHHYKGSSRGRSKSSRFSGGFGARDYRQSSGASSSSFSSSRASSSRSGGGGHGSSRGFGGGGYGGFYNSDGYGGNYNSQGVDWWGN

B1: dsRNA anisotropy probe (18/42-mer) (dsRNA)
RNA 1: ACCGCUGCCGUCGCUCCG
RNA 2: UUUUUUUUUUUUUUUUUUUUUUUUCGGAGCGACGGCAGCGGU
binding result: binds

— article PMC11538506
